Assay results as given in the DeepSol protein solubility set.

Assay: soluble on expression in E. coli; label from the status in PepcDB or PDB records
In the case of “SLSTADALDDENTFKILVATDIHLGFMEKDAVRGNDTFVTLDEILRLAQENEVDFILLGGDLFHENKPSRKTLHTCLELLRKYCMGDRPVQFEILSDQSVNFGFSKFPWVNYQDGNLNISIPVFSIHGNHDDPTGADALCALDILSCAGFVNHFGRSMSVEKIDISPVLLQKGSTKIALYGLGSIPDERLYRMFVNKKVTMLRPKEDENSWFNLFVIHQNRSKHGSTNFIPEQFLDDFIDLVIWGHEHECKIAPTKNEQQLFYISQPGSSVVTSLSPGEAVKKHVGLLRIKGRKMNMHKIPLHTVRQFFMEDIVLANHPDIFNPDNPKVTQAIQSFCLEKIEEMLENAERERLGNSHQPEKPLVRLRVDYSGGFEPFSVLRFSQKFVDRVANPKDIIHFFRHREQKEKTGEEINFGKLITKPSEGTTLRVEDLVKQYFQTAEKNVQLSLLTERGMGEAVQEFVDKEEKDAIEELVKYQLEKTQRFLKERHIDALEDKIDEEVRRFRETRQKNTNEEDDEVREAMTRARALR”, the “soluble on expression in E. coli” value is reported as “soluble”. With “SANLPTVLVTGASGRTGQIVYKKLKEGSDKFVAKGLVRSAQGKEKIGGEADVFIGDITDADSINPAFQGIDALVILTSAVPKMKPGFDPTKGGRPEFIFEDGQYPEQVDWIGQKNQIDAAKVAGVKHIVVVGSMGGTNPDHPLNKLGNGNILVWKRKAEQYLADSGTPYTIIRAGGLLDKEGGVRELLVGKDDELLQTDTKTVPRADVAEVCIQALLFEEAKNKAFDLGSKPEGTSTPTKDFKALFSQVTSRF” the “soluble on expression in E. coli” value was “soluble”. For “MVPPNDEIEDGFYLIDDSNHDEDLDFSDFPWLDPDHPLFFPATQANNSKGSTRWDAVNKFSVENWYPHLRKHTFKSHFITLNYNDIHYLMGNIPPDYDSSKLESIFNKILSEFNNKEVFMRLSTRSPKDSKFLFEEASTIMSKDFVYWNENDNKHQQLVSFVASMLKAMKIKSGRKIIETIAQSPRVYNDLLALVSSSNQSDCTTNVILREWHDIRPDHEFRVFVSRRHRKESIVTAISQYFHFLYFDKSPADCFNFLDEEDKKAVIKKFENYVLKSVDPDVAKFLNFSSEQDDDESSDCIREYIVDLALIPVSQYHGEITDENIIEIGANTYVMVVIELNPFAPAATGSGLFNWKNDLEHHHHHH”, the “soluble on expression in E. coli” value was “soluble”. For “GAADHVKGDGKLTSKKISVADYNEIKVDGVIDFNYEQSDDPSTVEVTVDQNLHPYVNIEVKDRVLTIAFKGAKVDHFTKFIVKTNSKWLAAAKVSGNANFMVNSPLTGDETVIKANANSLVQLKETVTVGKLDLNVSGSANMVVNHLEADKIECDIDGSGSITIKKGNAKEGDYSIVSSGDIHAFGLAVPQLSCKVTGNGLAEVHATDNLKANVVGKGNIRYKGPTAVQQRIIGKGTVEEVKE”, the “soluble on expression in E. coli” value was “soluble”. In the case of “MSDQPIVLTSFYPKEGGARDKILLDGKNFGTDVSKIKVYFNNARASVVSSSGSRIYAIVPRLPGDNPRISVVVDTDSVAYEETYAYHTQALVSTVTGNGETSFLAGTLSTAQVYGKYLDLDAEGNLFMSWRDGGTFGIARINEQQNIVTPLIEADAANRILYANGLTVDRATGMLTAAHESVKEVTFTFDPREAWYPRQRNIKYSQSDLNSIVDADRYKNFVTFCPYDGYLYTRYRDGKIAKIDPNTFEGHIIHQGPSGSQYGQAINPAKPWLLYITLHSNAPTAYRQGISVLDLRDPDGTGGFKRLNAPGGSAFRDGPIEDALFNYPKDIKFDNDGNMFVADYGNHCIRMISADNIVTTVAGQPGVAGYKDGGPVESLFKNPWGVAVNEQGDIYIADWGNARIRKLVIELEHHHHHH”, the “soluble on expression in E. coli” value is reported as “soluble”. For “MSLLFDSHLHLDQLSDENIQQTLAHSKIIGMLAVSTNLNSAKKLLNLKQTYPKKLYIAAGFHPEQQLPSLEEQKKLFQWIDEHHSSISAIGEVGLPHYSKRENPNLDYVPYIELLERFILIAKKWDLPLNLHIVHNDVEIALELLQKHNIQRAHFHWFKTDEKSFQKFFSTPYFASLTPDILWNSKTQYVAQHLSLNRLMIETDSPWQHEGFERAGISEQLLAVLQKLAELKSLPLHSVQKQILLNTQQFYQLEGHHHHHH”, the “soluble on expression in E. coli” value was “soluble”. With “MGSDKIHHHHHHMSVQESVGGDVTGWWPSDNESLSPYPLYRERFCREGGLQPVFSGRTVLLPLRPGLLLSMREGQALTDLRGKREVGPAMHLEILFAAEGYSVVSGSTERYPFKPNTVSLQVTSSAVVAEFFIPAGAVIRSLAVRFSGLYLDHLASKGGFAALCSGGGDPLLLSRGVDLVMRPLSPALRPLASQILATEGATDGERLFLEAKILELISVVLSTPASGGGQSQTEPTKTALSRRDHKKIGQARELLIGDLDKTWKIKDLARHVGMNENKLKAGFRQIYDNSIYAYLQDWRMRAASHRLKQGEDSVTGVALSVGYSNPAHFAKVFRRYFGVSPSRYAEDGAPGPKKDNETY” the “soluble on expression in E. coli” value was “not soluble”. For “MSLSENPIASVRLLRLQREEASLQQYRDNIGALKSQLTKNETLLDGISANLRDARDLLVAAANQPPTDDLKAMASPLVSLRDSILYAANTKDSEGRYMFSGSAVNNAAIVVDDTQPAGSRYRYNGNGDRQRVTVGEGVTEASNVTLESMAPLLNQLDKAIATLQSPTLDSKDPAVGATIREVMGGVDTALDRVGGTISELGGAQNVLKTLDGNHDSLSLANQESIIELGSLDYGTAYIAMNNLSMALQTSQKAYGKVSQLTLFDVIEGHHHHHH”, the “soluble on expression in E. coli” value was “soluble”. For “MSSAGVALSPVRSEPLIMPLVRANSCLDSYPDDTIMIYLTLPGSVIPMRVLESDSIESVKLRIQSYRGFVVRNQKLVFGGRELARSNSNMRDYGVSEGNILHLVLKLSDLQVLDVKTTCGKHCRFHVERGRNIGYVKKQISKKRGDFVDPDEQEILYEGEKLEDQSLINDICRNDDSVLHLLVRRSAKVRVKPVEKNFELSIVAPQAKDKKGREAKSIVPPKKLSLEPVVVNSKAKVPLVVKDMIQSASDGLKSGNSPVRSSEGTGGAYFMQGPSGNKFVGVFKPIDEEPMAENNPQGLPLSPNGEGLKKGTKVGEGALREVAAYILDHPKSGNKSMFGEEIGFAGVPPTAMIECLHPGFNHPKGIKTKIGSLQMFTENDGSCEDMGPLSFPVEEVHKISVLDIRLANADRHGGNILMTKDESGKLVLVPIDHGYCLPESFEDCTFEWLYWPQARKPYSAETQEYIRSLDAEEDIDLLKFHGWKMPAETAQTLRISTMLLKKGVERGLTAFEIGTIMCRETLSKKSLVEEMVEEAQEAVLPGTSEAAFLEALSDVMDYHLDHSQEH”, the “soluble on expression in E. coli” value was “not soluble”. In the case of “MHIEFREFNPFDVWIWLKFSNVPSEREKQYVEEVFNSWFYLGKLGAFNAENLQVQDTGLDISYMDYDPSAYNKSFLALMHNMSEFEYEGEWGRCWFDLGTSDAIALDLLLNSLTQLSEEYVTIEILYIGGENSDWPVEDSETHANADSIYDY”, the “soluble on expression in E. coli” value is reported as “not soluble”. With “MRRVLFSCFCGLLWSSSGWAVDPLGTININLHGNVVDFSCTVNTADIDKTVDLGRWPTTQLLNAGDTTALVPFSLRLEGCPPGSVAILFTGTPASDTNLLALDDPAMAQTVAIELRNSDRSRLALGEASPTEEVDANGNVTLNFFANYRALASGVRPGVAKADAIFMINYN” the “soluble on expression in E. coli” value was “not soluble”. For “MSDNDELQQIAHLRREYTKGGLRRRDLPADPLTLFERWLSQACEAKLADPTAMVVATVDEHGQPYQRIVLLKHYDEKGMVFYTNLGSRKAHQIENNPRVSLLFPWHTLERQVMVIGKAERLSTLEVMKYFHSRPRDSQIGAWVSKQSSRISARGILESKFLELKQKFQQGEVPLPSFWGGFRVSLEQIEFWQGGEHRLHDRFLYQRENDAWKIDRLAP”, the “soluble on expression in E. coli” value was “soluble”. With “MAHHHHHHMHVKHRATGRVVATLPFEPMPTLEDVSDAFIKAESTTATTHTGDLTVPTAYDNAEEDVDGAEEGETMYAVVYDLVTPTAPGDNGDSELAAAVTAAGLLENLPADADGTCNIGETMRKLVELGAAELLTAEPLSVSQARREYNPPEAPGLLRRIVYPASQYSPYRLDRDPLHTDKLSFYRSSTVTASVPSGPPPTSCTGLHALPVWDYGEGGLYTSYFDSYDLSCPMRGPFVRPSAAGKAALVMPLSDEEHHRIFGA” the “soluble on expression in E. coli” value was “soluble”. With “MSLSVPFEYTPIAQSVLDECEHLDTASLSDALDSLGIDGGLPGIASQVPGTRCVGIAFTVQYQPVDASEGFRGAANYIDQVPSGSVIVSSNSGRHDCTVWGDIMTHFALANGIKGTVIDGVARDIDTVINCNYPLFSRGRFMQSAKNRTQLKAVQVPLVIDGITIQPGDLMVCDGSGCVVVPQQLAAEVVLRARAVEQTERRIIEAISSGSTLEQARMTYRYDQPWLSEAEHGGTQEGHHHHHH” the “soluble on expression in E. coli” value was “soluble”. With “MTATIQNEKVIVSISDKGAELQSVRLKEDNTEYLWQGDSTYWGRRAPILFPIVGRLVDNTYYVDGKPYSLTQHGFARDLTFFVKEQSETKITYIVTSNEETLKKYPYEFELLVSYELNGQSVHITYEVNNPTSKEMFFSIGAHPGFNFPLLDGESFTDYHLSFNGSERLETSVLEGPYLSNKKQLIAENTTELPLTYDLFKNDALIFEHMNTNEISIRSHKHNKFVKVEFDGFPFVGVWTPGDNAPFLCIEPWYGIADEVNPAKDFKNKKGIQSLQANETFTCRYSITIGLEHHHHHH” the “soluble on expression in E. coli” value was “soluble”. In the case of “MKVCLQCENFFSSADWACPSCGYQPERLNGIEAHASEFAHGGGGFKPEYFSELSRLEAGNFWFRARNELILWALRTYKPNAGAFLEVGCGTGFVLSGIARACPEIALNGSEIFLAGLFHAAKRVPSTHFMQMDARRVPFVEEFDAIGAFDVLEHIEEDETVLAQLHNAIKPSGVLLLTVPQHPRLWSASDDYACHVRRYTRVEIEQKVLTAGFELLRSSSFVTSLLPVMMLSRVLQKRKTKDFDPAGELKINAALNKVFYGLMMLELAGIRLGMNYPVGGSRLVVAKKQSALEHHHHHH”, the “soluble on expression in E. coli” value is reported as “not soluble”. With “MLHLPTIETSSAGRRRRKANSEVDSGAEEPTATSSSDDKSDYRLDLKKRLTTFLTSNSQMASSDSGVSGVESTVEHDLSELKASDSPMSHDGADSPRPELDRTDIVVCGECHTSFSLSCFSNFIEHKVSNCGGKLTPSDDCEVTPRNFDRSRRRTFNPAALIRCGRSTSANALLPNYNMDVTTDTNDLGSSSKSLTCCNCKERFGDVWTLLKHSYDIHGLRVCQEAIPESDVSVTSTSSPTSNESMHMSSRYNHNDTSSKIMHQTIKSESTMMNSFCSERLKEIVTRAGEQDQKPLMALRRLMPSEETEEEQVSAFTSTSLLNSRASQPQLPTVSSSAGFQTSGSMPNVWMQPSMLAAMQEYYASIQQMPYPMTNSTAVALLNISNNLQQQQQQQQQLQQQQQNLIAAQPQVATPQPPAPTPLFQSLNRLSTADESSYTPRPASVAIRRRASPEEELTPPRKSMKIEEEDQLIVVDDGELAEPAARKPNNIKKERCNFCNKVFTNRSNLIVHLRSHTGEKPYKCQLCPYACAQSSKLTRHMRTHGQQGKETYHCYICRMPFSVHSTLEKHMRKCVVSTQGRREGGSPPERSIRPTPSALAEATSLLALSAPSISVPPQPQASTVGQNQSQSHQIVLNWLHALNASNSTPTATSKEDMIEADEDMEETEASDLQSHQPLTSESNQIATVAN” the “soluble on expression in E. coli” value was “not soluble”. For “AHHHHHHASAKWVCKICGYIYDEDAGDPDNGISPGTKFEELPDDWVCPICGAPKSEFEKLEDGSRGAYILLLYLPRNSIIKTKGKVFRLKKGYYAYVGSGMNSLEGRVLRHLRKDKKLHWHIDYLTLIATPLKAYLVPSPVRIEEELSKSLNMVGKVVKGFGSSDLSVPGNLFFFDKDPSEKIEEIVWAFLSRKPKSDDLRQDTS”, the “soluble on expression in E. coli” value was “soluble”. For “MRGSHHHHHHGMASMTGGQQMGRDLYDDDDKDHPFTEGRSWPSAPDDSKAQAHRIHIDPEIQDGSPTTSRRPSGTGTGPEDGRPSLGSPYGKPPCFPVPHNGSSEATLPAQMSTLHVSPPPSADPAEASRGAGSRVDLGSEVYRMLREPAEPVAAEPKQSGSFRYLQGMLEAGEGGD”, the “soluble on expression in E. coli” value was “soluble”. With “MGSDKIHHHHHHMKMKEFLDLLNESRLTVTLTGAGISTPSGIPDFRGPNGIYKKYSQNVFDIDFFYSHPEEFYRFAKEGIFPMLQAKPNLAHVLLAKLEEKGLIEAVITQNIDRLHQRAGSKKVIELHGNVEEYYCVRCEKKYTVEDVIKKLESSDVPLCDDCNSLIRPNIVFFGENLPQDALREAIGLSSRASLMIVLGSSLVVYPAAELPLITVRSGGKLVIVNLGETPFDDIATLKYNMDVVEFARRVMEEGGIS” the “soluble on expression in E. coli” value was “not soluble”.
